What was measured:
[1] = test system: human breast cancer MCF-7 cells; test: Clonogenicity experiments; format: cell-based; settings: for cell proliferation / number of G418-resistant colonies: MCF-7 transfected with GFP fusion, G418 selection 3 weeks, compared to GFP; for inhibitory effect on colony number relative to that of GFP-ATIP3: MCF7, FIG. 12
Description: For clonogenicity experiments, human breast cancer MCF-7 cells were transfected for 24 h with […] pEGFP-C1 vector or 2 μg of pEGFP-ATIP3BD cDNA. Similar transfection efficiency (50%) was assessed by FACS analysis and cell viability was verified using trypan blue. Cells were then plated at various dilutions in 12 well plates and transfectants were selected by adding geneticin (G418, 1 mg/ml, Gibco) in fresh medium twice a week for 3 weeks. Resistant colonies were stained with 0.5% crystal violet (Sigma) and counted.
The ability of human MCF7 breast cancer cells to form colonies following expression of minimal domains D2N and D2C was analyzed by clonogenicity experiments as described before (see example 2).

microtubule cytoskeleton = test: Immunofluorescence intracellular localization in RPE1 cells; format: cell-based, Human; settings: RPE1 cells transfected 24 hrs, data not shown
Description: Immunofluorescence study was performed as example 2. Briefly, Human retinal pigment epithelial (RPE1) cells were transfected for 24 hrs with GFP-D2N, GFP-D2C or GFP-D2CC constructs prior to fixation in ice-cold methanol and incubation with anti-GFP antibodies as described (page 21, lines 1-9).

| Molecule | cell proliferation / number of G418-resistant colonies [1] | inhibitory effect on colony number relative to that of GFP-ATIP3 [1] | intracellular localization (microtubule cytoskeleton) |
| --- | --- | --- | --- |
| ATIP3b: microtubule-associated tumor suppressor 1 isoform 2, SEQ ID NO: 6 (protein, listed as Homo sapiens, (1)..(409) acidic N-terminal region) MTDDNSDDKIEDELQTFFTSDKDGNTHAYNPKSPPTQNSSASSVNWNSANPDDMVVDYETDPAVVTGENISLSLQGVEVFGHEKSSSDFISKQVLDMHKDSICQCPALVGTEKPKYLQHSCHSLEAVEGQSVEPSLPFVWKPNDNLNCAGYCDALELNQTFDMTVDKVNCTFISHHAIGKSQSFHTAGSLPPTGRRSGSTSSLSYSTWTSSHSDKTHARETTYDRESFENPQVTPSEAQDMTYTAFSDVVMQSEVFVSDIGNQCACSSGKVTSEYTDGSQQRLVGEKETQALTPVSDGMEVPNDSALQEFFCLSHDESNSEPHSQSSYRHKEMGQNLRETVSYCLIDDECPLMVPAFDKSEAQVLNPEHKVTETEDTQMVSKGKDLGTQNHTSELILSSPPGQKVGSSFGLTWDANDMVISTDKTMCMSTPVLEPTKVTFSVSPIEATEKCKKVEKGNRGLKNIPDSKEAPVNLCKPSLGKSTIKTNTPIGCKVRKTEIISYPRPNFKNVKAKVMSRAVLQPKDAALSKVTPRPQQTSASSPSSVNSRQQTVLSRTPRSDLNADKKAEILINKTHKQQFNKLITSQAVHVTTHSKNASHRVPRTTSAVKSNQEDVDKASSSNSACETGSVSALFQKIKGILPVKMESAECLEMTYVPNIDRISPEKKGEKENGTSMEKQELKQEIMNETFEYGSLFLGSASKTTTTSGRNISKPDSCGLRQIAAPKAKVGPPVSCLRRNSDNRNPSADRAVSPQRIRRVSSSAGNAAVIKYEEKPPKPAFQNGSSGSFYLKPLVSRAHVHLMKTPPKGPSRKNLFTALNAVEKSRQKNPRSLCIQPQTAPDALPPEKTLELTQYKTKCENQSGFILQLKQLLACGNTKFEALTVVIQHLLSEREEALKQHKTLSQELVNLRGELVTASTTCEKLEKARNELQTVYEAFVQQHQAEKTERENRLKEFYTREYEKLRDTYIEEAEKYKMQLQEQFDNLNAAHETSKLEIEASHSEKLELLKKAYEASLSEIKKGHEIEKKSLEDLLSEKQESLEKQINDLKSENDALNEKLKSEEQKRRAREKANLKNPQIMYLEQELESLKAVLEIKNEKLHQQDIKLMKMEKLVDNNTALVDKLKRFQQENEELKARMDKHMAISRQLSTEQAVLQESLEKESKVNKRLSMENEELLWKLHNGDLCSPKRSPTSSAIPLQSPRNSGSFPSPSISPR | inhibit cell proliferation and reduce cancer cell growth |  |  |
| D2C: domain of ATIP3BD, amino-acid positions 705-874 of SEQ ID NO: 1, expressed as GFP fusion (protein, listed as Homo sapiens, GFP fusion; (1)..(409) acidic N-terminal region) TTSGRNISKPDSCGLRQIAAPKAKVGPPVSCLRRNSDNRNPSADRAVSPQRIRRVSSSGKPTSLKTAQSSWVNLPRPLPKSKASLKSPALRRTGSTPSIASTHSELSTYSNNSGNAAVIKYEEKPPKPAFQNGSSGSFYLKPLVSRAHVHLMKTPPKGPSRKNLFTALNA | strongly reduces the number of G418-resistant colonies | 78% | associate with the microtubule cytoskeleton |
| ATIP3a: microtubule-associated tumor suppressor 1 isoform 1, SEQ ID NO: 1 (protein, listed as Homo sapiens, (1)..(409) acidic N-terminal region) MTDDNSDDKIEDELQTFFTSDKDGNTHAYNPKSPPTQNSSASSVNWNSANPDDMVVDYETDPAVVTGENISLSLQGVEVFGHEKSSSDFISKQVLDMHKDSICQCPALVGTEKPKYLQHSCHSLEAVEGQSVEPSLPFVWKPNDNLNCAGYCDALELNQTFDMTVDKVNCTFISHHAIGKSQSFHTAGSLPPTGRRSGSTSSLSYSTWTSSHSDKTHARETTYDRESFENPQVTPSEAQDMTYTAFSDVVMQSEVFVSDIGNQCACSSGKVTSEYTDGSQQRLVGEKETQALTPVSDGMEVPNDSALQEFFCLSHDESNSEPHSQSSYRHKEMGQNLRETVSYCLIDDECPLMVPAFDKSEAQVLNPEHKVTETEDTQMVSKGKDLGTQNHTSELILSSPPGQKVGSSFGLTWDANDMVISTDKTMCMSTPVLEPTKVTFSVSPIEATEKCKKVEKGNRGLKNIPDSKEAPVNLCKPSLGKSTIKTNTPIGCKVRKTEIISYPRPNFKNVKAKVMSRAVLQPKDAALSKVTPRPQQTSASSPSSVNSRQQTVLSRTPRSDLNADKKAEILINKTHKQQFNKLITSQAVHVTTHSKNASHRVPRTTSAVKSNQEDVDKASSSNSACETGSVSALFQKIKGILPVKMESAECLEMTYVPNIDRISPEKKGEKENGTSMEKQELKQEIMNETFEYGSLFLGSASKTTTTSGRNISKPDSCGLRQIAAPKAKVGPPVSCLRRNSDNRNPSADRAVSPQRIRRVSSSGKPTSLKTAQSSWVNLPRPLPKSKASLKSPALRRTGSTPSIASTHSELSTYSNNSGNAAVIKYEEKPPKPAFQNGSSGSFYLKPLVSRAHVHLMKTPPKGPSRKNLFTALNAVEKSRQKNPRSLCIQPQTAPDALPPEKTLELTQYKTKCENQSGFILQLKQLLACGNTKFEALTVVIQHLLSEREEALKQHKTLSQELVNLRGELVTASTTCEKLEKARNELQTVYEAFVQQHQAEKTERENRLKEFYTREYEKLRDTYIEEAEKYKMQLQEQFDNLNAAHETSKLEIEASHSEKLELLKKAYEASLSEIKKGHEIEKKSLEDLLSEKQESLEKQINDLKSENDALNEKLKSEEQKRRAREKANLKNPQIMYLEQELESLKAVLEIKNEKLHQQDIKLMKMEKLVDNNTALVDKLKRFQQENEELKARMDKHMAISRQLSTEQAVLQESLEKESKVNKRLSMENEELLWKLHNGDLCSPKRSPTSSAIPLQSPRNSGSFPSPSISPR | inhibit cell proliferation and reduce cancer cell growth |  |  |
| D2N: domain of ATIP3BD, amino-acid positions 410-634 of SEQ ID NO: 1, expressed as GFP fusion (protein, listed as Homo sapiens, GFP fusion; (1)..(409) acidic N-terminal region) GLTWDANDMVISTDKTMCMSTPVLEPTKVTFSVSPIEATEKCKKVEKGNRGLKNIPDSKEAPVNLCKPSLGKSTIKTNTPIGCKVRKTEIISYPRPNFKNVKAKVMSRAVLQPKDAALSKVTPRPQQTSASSPSSVNSRQQTVLSRTPRSDLNADKKAEILINKTHKQQFNKLITSQAVHVTTHSKNASHRVPRTTSAVKSNQEDVDKASSSNSACETGSVSALF | strongly reduces the number of G418-resistant colonies | 71% | associate with the microtubule cytoskeleton |

Reference: patent publication US20130345145A1, “ATIP3 AND BIOLOGICALLY ACTIVE FRAGMENTS THEREOF FOR USE IN THE TREATMENT OF CANCER” (INSTITUT NATIONAL DE LA SANTE ET DE LA RECHERCHE MEDICALE …, priority 2011, published 2013)
